Values of other authors as cited in publication PMC8541618.
Read-outs that look alike come from different tables or passages of the source.

Assays:
[1] = biological target: VanRA (Enterococcus faecium) (UniProt Q06239)
[2] = biological target: VanRA (Enterococcus faecium) (UniProt Q06239); remark: listed apart in the source

UniProt Q06239, sequence (Q06239 whole entry): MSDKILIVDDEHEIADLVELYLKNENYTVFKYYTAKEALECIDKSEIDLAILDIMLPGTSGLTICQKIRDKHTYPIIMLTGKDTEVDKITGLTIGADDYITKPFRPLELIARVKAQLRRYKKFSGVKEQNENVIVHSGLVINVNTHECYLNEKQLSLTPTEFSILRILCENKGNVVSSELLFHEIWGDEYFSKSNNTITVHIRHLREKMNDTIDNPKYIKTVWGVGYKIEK

| Substance | Kd [1] [µM] | Kd [2] [µM] |
| --- | --- | --- |
| VanSA (from UniProt Q06240) | 1.9 |  |
| VanSA cytosolic portion (from UniProt Q06240) |  | 6.8 |
